# Data taken from the RNAGym collection of RNA variant scans (doi:10.7554/elife.80360).
# B1: HDV Ribozyme (parent)
# chain: GGCCGGCAUGGUCCCAGCCUCCUCGCUGGCGCCGGCUGGGCAACAUUCCGAGGGGACCGUCCCCUCGGUAAUGGCGAAUGGGACCCA
# Variants of: B1
# Assay: self-cleavage, relative activity (ratio to wild type); higher = more cleavage; co-transcriptional
row,Variant,self-cleavage
1,G59U C64A,0.899
2,A8U C85G,0.883
3,G40C A42U,0.151
4,G5U G80A,0.208
5,G39U C64U,0.597
6,G34A G39C,0.0707
7,A8G G29U,0
8,C22A C30U,0.121
9,A42G C75A,0.0554
10,G1A G54C,0.364
11,C7G A56U,0.475
12,C33G A77C,0.115
13,G11U C44G,0.0723
14,U65G U72G,0.748
15,C15U C58G,1.36
16,C41A C63U,1.04
17,G25C G53C,0.356
18,G59U U60G,0.88
19,U20C C30G,0.447
20,G52U G80C,0.241
21,C24U A78C,0.196
22,C21A U23A,0.0369
23,C19A C21U,0.134
24,G55U C62U,0.925

row,Variant,self-cleavage
1,A43C A77C,0.0923
2,C22U U37C,0.415
3,C13G A77U,0.119
4,C18A C58A,0.285
5,G6A C22G,0.0739
6,U46A A83G,0.378
7,U69A A87U,0.913
8,C22U U47G,0.58
9,U20G G52U,0.332
10,C49A U65G,0.539
11,C24A A78C,0.133
12,C15A G31C,0
13,C33G G40C,0.138
14,G1A C14G,0.0665
15,C14U G28U,0.285
16,G2A U37A,0.0755
17,G25C G50A,0.0354
18,G34C C58A,0.161
19,C30G G76C,0.117
20,G5U C21U,0.0462
21,U72G C85A,0.653
22,G1A A83C,0.138
23,C32G G80C,0
24,G53U G80U,0.256

row,Variant,self-cleavage
1,C18A C63G,0.0791
2,G25U C62A,0.138
3,C36A C85U,0.158
4,C24U C36U,0.402
5,G67A U79G,0.807
6,C61U G74A,0.463
7,G28U C32U,0.041
8,C33G U79A,0.0755
9,U20C C84G,0.0978
10,U20C C84A,0.166
11,U69C C75U,0.0573
12,G17U C58U,0.708
13,G25U G82U,0.0252
14,A8G G67C,0.665
15,G31C C36G,0
16,C22U A43G,0.116
17,C18U U72C,0.193
18,C18U U72A,0.175
19,C62U U65C,0.988
20,G11A C14G,0.0346
21,U9G G59C,1.06
22,C32A G52U,0.134
23,U69G C75A,0.107
24,C4U G38C,0.116

row,Variant,self-cleavage
1,G53U C86G,1.12
2,U23A G59C,0.811
3,C61A A83C,0.342
4,C13A G17C,0
5,A70G U79A,0.77
6,C75U G81A,0.166
7,U20G C86U,0.214
8,U9A G52C,1.16
9,G6C C49G,0.166
10,C19A G73U,0.0631
11,C26G C57A,0.812
12,G1C U20G,0
13,C49G G52A,0.543
14,C15A C30U,0.104
15,G38U A70U,0.277
16,U20A C66U,0.0773
17,G11U C62U,0.403
18,C26A,1.01
19,U9G G40C,0.437
20,G17U C85A,0.538
21,G1C C58U,0.0923
22,G25A U47G,0.32
23,C41G A42C,0.353
24,G67A A78U,0.234

row,Variant,self-cleavage
1,C22U G53U,0.61
2,C21A C33U,0.0723
3,U9A G81A,0.396
4,U20G G25A,0
5,C7A C49U,0.582
6,C48U G55A,0.75
7,G34C A56C,0.237
8,G17U C61U,0.471
9,C32G A51G,0.0665
10,A51C C62G,0.151
11,G17A G25A,0.117
12,G35U A51C,0.332
13,G81C G82A,0.0665
14,C22A G38U,0.554
15,U27C G39C,0.166
16,C33G A78C,0
17,G2U G52U,0.055
18,G53A G82U,0.359
19,C3U U69G,0.649
20,U9A C86U,1.09
21,U37A C58G,0.369
22,G5C G54U,0.217
23,A45U A87U,0.734
24,U23C G59A,1.19

row,Variant,self-cleavage
1,U37C G80U,0.224
2,C26G G67U,0.665
3,C63A C75G,0.201
4,A77G G82U,0.277
5,G53U C62A,0.901
6,G1U G34C,0.155
7,C13A A43G,0.0831
8,G29A G74C,0.0831
9,G40C U72G,0.158
10,U27C A77G,0.798
11,G1C C32G,0
12,C41A A77U,0.332
13,U23A G76U,0.941
14,C14U G67A,1.09
15,U37C G76C,1.19
16,G17C U46A,0.237
17,C15U C41G,0.475
18,U69G U79G,0.895
19,A42U U65G,0.457
20,A16U C24G,0.237
21,C49A C66A,0.786
22,A56C A70U,1.16
23,G29C G68U,0.0302
24,C48A U65A,0.845

row,Variant,self-cleavage
1,C41A C85U,0.849
2,G10A G39A,0.321
3,G11U A77C,0.0652
4,C44A C85A,0.656
5,C13G C61U,0.148
6,G52A C86A,0.9
7,A56G C86G,1.17
8,G52C C58A,0.796
9,C48G C75G,0.0639
10,C24A C57G,0.869
11,U60G U79A,0.665
12,G68C A77C,0.185
13,C63U A70C,1.07
14,U46G G67A,0.527
15,G29A G50A,0.134
16,G59U U79A,0.929
17,G5U G73U,0.122
18,A70G G74C,0.107
19,C57U C66G,1.07
20,C14A A87C,0.643
21,G6U C7G,0
22,U27A A83U,0.88
23,A8G G10C,0.665
